Reference: US20100074852A1

How the values were obtained:
[1] = target: human Neurokinin NK2 receptor (human) (UniProt P21452); assay: radio-ligand competition binding (CEREP), second screen, reference compound; radioligand not named
[2] = target: human Neurokinin NK2 receptor (human) (UniProt P21452); assay: radio-ligand competition binding (CEREP), reference compound, human receptor in recombinant mammalian cells; radioligand not named

Chain of human Neurokinin NK2 receptor (human) (P21452 whole entry): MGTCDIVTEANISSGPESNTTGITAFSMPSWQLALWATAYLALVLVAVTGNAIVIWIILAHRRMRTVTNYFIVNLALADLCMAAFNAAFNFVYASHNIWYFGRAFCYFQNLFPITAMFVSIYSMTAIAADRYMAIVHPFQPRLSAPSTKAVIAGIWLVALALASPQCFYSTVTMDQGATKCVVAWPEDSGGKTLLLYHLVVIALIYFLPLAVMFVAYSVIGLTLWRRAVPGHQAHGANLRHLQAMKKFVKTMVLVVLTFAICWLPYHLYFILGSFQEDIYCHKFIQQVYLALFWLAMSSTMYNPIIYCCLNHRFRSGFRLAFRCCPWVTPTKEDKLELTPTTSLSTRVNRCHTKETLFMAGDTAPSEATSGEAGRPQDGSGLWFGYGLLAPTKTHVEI

- IC50 [1]: 9.7 nM
- IC50 [2]: 9.3 nM
Substance: [Nle10]-NKA(4-10) (from UniProt P20366 101-107) (peptide)
